# Columns and labels:
# [1] = target: Bradyrhizobium japonicum SemiSWEET (Bradyrhizobium japonicum); assay: not stated; BjSemiSWEET in liposomes (fig. S8B); method not given
# [2] = target: Bradyrhizobium japonicum SemiSWEET (Bradyrhizobium japonicum); assay: not stated; BjSemiSWEET in detergent (fig. S8A); method not given
substance,measurement,setting,value
Bradyrhizobium japonicum SemiSWEET (natural protein),stoichiometry N,[1],2
same,stoichiometry N,[2],2

# From publication PMC12609076
